Data: patent publication US20150284465A1 (Chugai, published 2015)

What was measured:
[1] = target: T1, hFcγRIIIaV-His6 (human-derived Fcγ receptor IIIa, Val) (human, UniProt P08637 17-208, limits assumed); test: SPR (Biacore T100), hFcγRIIIaV-His6 immobilized on CM5, antibody as analyte at 250 µg/ml
T1 construct: also called FcγRIIIa (Val); not shown: His6 tag
Description: The FcγRIIIa binding was assessed by the procedure described below. […] The amounts of bound antibody were compared. […] FcγRIIIa was immobilized onto the sensor chip CM5 (Biacore) by the amine coupling method. […] The running buffer used was HBS-EP+, and the flow rate was 5 μl/min. The sample concentration was adjusted to 250 μg/ml using HBS-EP+. The analysis included two steps: two minutes of association phase where 10 μl of an antibody solution was injected and the subsequent four minutes of dissociation phase where the injection was switched with HBS-EP+. After the dissociation phase, the sensor chip was regenerated by injecting 20 μl of 5 mM hydrochloric acid. The association, dissociation, and regeneration constitute one analysis cycle. Various antibody solutions were injected to obtain sensorgrams. […] 1999 August; 29(8):2613-24.

[2] = target: T2, human-derived Fcγ receptor IIb (Recombinant Human FcRIIB/C, R&D systems) (human, UniProt P31994 46-217, limits assumed); test: SPR (Biacore T100), FcγRIIb immobilized on CM5, antibody as analyte at 200 µg/ml, 25 C
T2 construct: Bought recombinant protein, construct not described; also called FcγRIIb
T2 sequence (looked up): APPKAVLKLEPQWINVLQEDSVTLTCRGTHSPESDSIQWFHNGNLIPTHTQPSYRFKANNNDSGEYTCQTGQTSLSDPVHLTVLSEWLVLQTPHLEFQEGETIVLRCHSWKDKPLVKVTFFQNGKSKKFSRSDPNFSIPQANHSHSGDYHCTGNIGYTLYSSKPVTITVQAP
Description: The FcγRIIb binding was assessed by the procedure described below. […] The amounts of bound antibody were compared. […] FcγRIIb was immobilized onto the sensor chip CM5 (Biacore) by the amine coupling method. The final amount of immobilized FcγRIIb was about 4,300 RU. Then, the running buffer was injected until the baseline was stabilized. The measurement was carried out after the baseline was stabilized. […] The running buffer used was HBS-EP+ (10 mM HEPES, 0.15M NaCl, 3 mM EDTA, 0.05% v/v Surfactant P20), and the flow rate was 20 μl/min. The measurement temperature was 25° C. The concentration of each IgG or modified form thereof was adjusted to 200 μg/ml. 20 μl of an analyte was injected and allowed to interact with the immobilized FcγRIIb. After interaction, the analyte was dissociated from FcγRIIb and the sensor chip was regenerated by injecting 200 μl of the running buffer. […] This series of injection was repeated twice.

[3] = target: T3, recombinant human IL-6R sR (R&D systems) (human, UniProt P08887 20-358); test: SPR (Biacore T100), antibody captured on Protein A, rhIL-6sR as analyte, 25 C
T3 construct: Bought soluble receptor; also called rhIL-6sR; rhIL-s6R
T3 sequence (looked up): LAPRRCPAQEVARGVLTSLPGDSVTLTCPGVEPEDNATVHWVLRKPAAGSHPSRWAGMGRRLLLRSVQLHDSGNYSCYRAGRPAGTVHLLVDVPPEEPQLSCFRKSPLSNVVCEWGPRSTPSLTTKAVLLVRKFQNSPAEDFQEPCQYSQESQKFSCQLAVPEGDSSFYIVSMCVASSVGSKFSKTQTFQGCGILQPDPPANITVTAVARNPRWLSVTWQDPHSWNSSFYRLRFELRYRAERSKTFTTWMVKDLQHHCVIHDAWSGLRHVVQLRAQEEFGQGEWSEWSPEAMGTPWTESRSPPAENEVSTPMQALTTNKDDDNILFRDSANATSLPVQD
Description: The antigen-antibody interaction was measured by immobilizing 1,800 to 2,600 RU (resonance units) of rec-Protein A (Zymed) (hereinafter “Protein A”) onto a sensor chip, binding various antibodies onto the chip, and then flowing the antigen over the chip as an analyte. Various concentrations of recombinant human IL-6R sR (R&D systems) (hereinafter “rhIL-6sR”) were used as the antigen. All measurements were carried out at 25° C. The kinetic parameters, association rate constant kₐ (1/Ms) and dissociation rate constant kd (1/s) were calculated from the sensorgrams obtained by measurement. Then, KD (M) was determined based on the rate constants. The respective parameters were determined using Biacore T100 Evaluation Software (Biacore).

[4] = target: T4, SR344 (N-terminal 1st to 344th amino acids of soluble human IL-6R) (human, UniProt P08887 20-344, limits assumed); test: cell-based or functional assay
T4 sequence (looked up): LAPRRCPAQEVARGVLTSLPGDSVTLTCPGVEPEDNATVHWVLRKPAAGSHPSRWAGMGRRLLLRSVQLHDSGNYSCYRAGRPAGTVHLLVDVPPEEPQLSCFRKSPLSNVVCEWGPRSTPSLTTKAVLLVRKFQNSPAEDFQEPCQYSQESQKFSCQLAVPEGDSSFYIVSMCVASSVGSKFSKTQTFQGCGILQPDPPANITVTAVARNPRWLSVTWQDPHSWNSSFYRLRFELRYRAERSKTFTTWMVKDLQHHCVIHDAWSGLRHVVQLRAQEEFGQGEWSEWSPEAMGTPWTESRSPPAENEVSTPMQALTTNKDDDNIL

[5] = target: T5, soluble GPC3 core polypeptide (human, UniProt P51654 25-563); test: competitive ELISA on plate-immobilized soluble GPC3 core polypeptide; competitor: biotinylated H0L0 antibody at 0.3 µg/mL
T5 construct: also called soluble GPC3 core protein; soluble glypican-3 core
Description: 100 μl of the polypeptide solution was added to each well of a 96-well plate. […] After 200 μl of blocking buffer was added, the plate was blocked at 4° C. overnight or longer. […] The plate was incubated at room temperature for one hour, and then washed five times with washing buffer using SkanWasher 400 (Molecular Devices). Goat anti-streptavidin alkaline phosphatase (Zymed) was 20,000-times diluted with substrate buffer and added to the plate at 100 μl/well. The plate was incubated at room temperature for one hour, and then washed five times with washing buffer using SkanWasher 400. The concentration of phosphatase substrate (Sigma) was adjusted to 1 mg/ml using the substrate buffer, and the solution was added to the plate at 100 μl/well. The plate was incubated for one hour.

[6] = target: T5, soluble GPC3 core polypeptide; test: competitive ELISA on plate-immobilized soluble GPC3 core polypeptide; competitor: biotinylated GPC3-H2L2 antibody at 0.3 µg/mL
Description: The binding activities of prepared antibodies were determined by competitive ELISA. […] The plates were incubated at 4° C. for 30 minutes or more for blocking. […] The plates were incubated at room temperature for one hour, and then washed five times with washing buffer using SkanWasher 400 (Molecular Devices). 100 μl of goat anti streptavidin alkaline phosphatase (Zymed) 20,000-times diluted with substrate buffer was added to each well. The plates were incubated at room temperature for one hour, and then washed five times with washing buffer using SkanWasher 400. Phosphatase Substrate (Sigma) was prepared at 1 mg/ml using substrate buffer, and added to each well (100 μl). The plates were incubated for one hour.

T1 sequence (P08637 17-208 F176V limits assumed): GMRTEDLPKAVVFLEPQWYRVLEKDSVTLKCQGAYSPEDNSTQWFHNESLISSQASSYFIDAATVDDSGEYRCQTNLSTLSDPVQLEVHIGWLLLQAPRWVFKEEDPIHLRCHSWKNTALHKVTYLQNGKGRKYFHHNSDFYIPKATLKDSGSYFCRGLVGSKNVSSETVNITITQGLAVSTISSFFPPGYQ
T5 sequence (P51654 other isoform, or with tags, fused parts or gaps limits assumed): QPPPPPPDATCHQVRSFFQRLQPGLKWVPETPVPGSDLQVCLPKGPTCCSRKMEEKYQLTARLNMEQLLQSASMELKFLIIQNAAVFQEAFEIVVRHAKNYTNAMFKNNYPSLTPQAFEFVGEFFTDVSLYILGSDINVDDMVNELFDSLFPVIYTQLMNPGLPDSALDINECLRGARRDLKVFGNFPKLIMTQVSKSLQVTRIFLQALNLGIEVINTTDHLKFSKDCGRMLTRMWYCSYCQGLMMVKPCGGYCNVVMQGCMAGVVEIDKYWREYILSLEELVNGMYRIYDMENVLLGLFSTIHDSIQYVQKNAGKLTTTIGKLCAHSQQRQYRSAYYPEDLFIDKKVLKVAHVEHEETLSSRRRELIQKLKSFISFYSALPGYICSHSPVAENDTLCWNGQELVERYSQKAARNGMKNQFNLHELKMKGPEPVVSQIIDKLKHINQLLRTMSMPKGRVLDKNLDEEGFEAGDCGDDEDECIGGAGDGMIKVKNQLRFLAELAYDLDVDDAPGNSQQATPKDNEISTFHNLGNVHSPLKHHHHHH

B1: WT-M11ΔGK (antibody)
heavy: QVQLQESGPGLVRPSQTLSLTCTVSGYSITSDHAWSWVRQPPGRGLEWIGYISYSGITTYNPSLKSRVTMLRDTSKNQFSLRLSSVTAADTAVYYCARSLARTTAMDYWGQGSLVTVSSASTKGPSVFPLAPSSKSTSGGTAALGCLVKDYFPEPVTVSWNSGALTSGVHTFPAVLQSSGLYSLSSVVTVPSSSLGTKTYTCNVDHKPSNTKVDKTVERKSCVECPPCPAPPVAGPSVFLFPPKPKDTLMISRTPEVTCVVVDVSQEDPEVQFNWYVDGVEVHNAKTKPREEQFNSTYRVVSVLTVLHQDWLNGKEYKCKVSNKGLPSSIEKTISKAKGQPREPQVYTLPPSQEEMTKNQVSLTCLVKGFYPSDIAVEWESNGQPENNYKTTPPVLDSDGSFFLYSKLTVDKSRWQEGNVFSCSVMHEALHNHYTQKSLSLSL
light: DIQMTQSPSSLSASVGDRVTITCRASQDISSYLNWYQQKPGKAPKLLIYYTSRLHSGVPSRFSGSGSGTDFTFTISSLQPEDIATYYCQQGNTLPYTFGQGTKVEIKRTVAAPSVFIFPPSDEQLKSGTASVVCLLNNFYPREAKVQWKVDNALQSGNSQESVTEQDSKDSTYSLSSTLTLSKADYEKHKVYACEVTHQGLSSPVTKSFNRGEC
- binding result [1]: binds
- binding result [2]: binds

B2: WT-IgG2 (antibody)
heavy: QVQLQESGPGLVRPSQTLSLTCTVSGYSITSDHAWSWVRQPPGRGLEWIGYISYSGITTYNPSLKSRVTMLRDTSKNQFSLRLSSVTAADTAVYYCARSLARTTAMDYWGQGSLVTVSSASTKGPSVFPLAPCSRSTSESTAALGCLVKDYFPEPVTVSWNSGALTSGVHTFPAVLQSSGLYSLSSVVTVPSSNFGTQTYTCNVDHKPSNTKVDKTVERKCCVECPPCPAPPVAGPSVFLFPPKPKDTLMISRTPEVTCVVVDVSHEDPEVQFNWYVDGVEVHNAKTKPREEQFNSTFRVVSVLTVVHQDWLNGKEYKCKVSNKGLPAPIEKTISKTKGQPREPQVYTLPPSREEMTKNQVSLTCLVKGFYPSDIAVEWESNGQPENNYKTTPPMLDSDGSFFLYSKLTVDKSRWQQGNVFSCSVMHEALHNHYTQKSLSLSPGK
light: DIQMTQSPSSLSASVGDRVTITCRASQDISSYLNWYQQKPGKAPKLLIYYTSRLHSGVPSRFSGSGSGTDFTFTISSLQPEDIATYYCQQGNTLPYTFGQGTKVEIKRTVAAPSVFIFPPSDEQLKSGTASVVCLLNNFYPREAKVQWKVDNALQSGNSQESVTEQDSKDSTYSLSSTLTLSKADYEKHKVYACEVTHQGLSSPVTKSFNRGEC
- binding result [1]: binds
- binding result [2]: binds

B3: RD-6 (antibody, V domains shown)
VH: QVQLQESGPGLVRPSQTLSLTCTVSGYSITSDHAWSWVRQPPGRGLEWIGYISYSGITTYNPSLKSRVTMLRDTSKNQFSLRLSSVTAADTAVYYCARLLARATAMDYWGQGSLVTVSS
VL: DIQMTQSPSSLSASVGDRVTITCRASQDISSYLNWYQQKPGKAPKLLIYYTSRLHSGVPSRFSGSGSGTDFTFTISSLQPEDIATYYCQQGNTLPYTFGQGTKVEIK
notes: VH assembled from the FR and CDR entries of humanized PM-1
- Kd [3]: 0.012 nM
- fold higher affinity than WT [3]: ~50 fold
- koff [3]: 2.8e-05 s⁻¹
- kon [3]: 2.3e+06 M⁻¹ s⁻¹
- BaF3/gp130 neutralizing activity, 100% inhibitory concentration against WT [4]: ~50 fold

B4: antibody H15L4 (antibody, V domains shown)
VH: QVQLVQSGAEVKKPGASVKVSCKASGYTFTDYEMHWIRQPPGQGLEWIGAIDPKTGDTAYSQKFKGRVTLTADKSTSTAYMELSSLTSEDTAVYYCTRFYSYTYWGQGTLVTVSS
VL: DIVMTQSPLSLPVTPGEPASISCRSSQSLVHSNRNTYLHWYQQKPGQAPRLLIYKVSNRFSGVPDRFSGSGSGTDFTLKISRVEAEDVGVYYCSQNTHVPPTFGQGTKLEIK
notes: Point mutant of the anti-glypican 3 antibody H0L0
- binding result [5]: binds

B5: GPC3_H1L1 (antibody, human IgG1, kappa, V domains shown)
VH: QVQLVQSGAEVKKPGASVKVSCKASGYTFTDYEMHWIRQPPGKGLEWIGAINPKTGDTAYSQKFKGRVTLTADKSTSTAYMELSSLTSEDTAVYYCTRFYSYTYWGRGTLVTVSS
VL: DIVMTQSPLSLPVTPGQPASISCRASRSLVHSNRNTYLHWYQQKPGQAPRLLIYKVSNRFSGVPDRFSGSGSGTDFTLKISRVEAEDVGVYYCSQNTHVPPTFGRGTKLEIKR
notes: Anti-human GPC3 antibody
- binding result [6]: binds

B6: Hspu2.2Lspu2.2 antibody (antibody, V domains shown)
VH: QVQLVQSGAEVKKPGASVKVSCKASGYTFTDYEMHWIRQPPGKGLEWIGAINPKTGDTAYSQKFKGRVTLTADKSTSTAYMELSSLTSEDTAVYYCTRFYSYTYWGRGTLVTVSS
VL: DIVMTQSPLSLPVTPGQPASISCRASRSLVHSNRNTYLHWYQQKPGQAPRLLIYKVSNRFSGVPDRFSGSGSGTDFTLKISRVEAEDVGVYYCSQNTHVPPTFGRGTKLEIK
notes: Anti-glypican 3, raised isoelectric point; also called Hu2.2Lu2.2
- binding result [5]: binds

B7: Hspd1.8Lspd1.6 antibody (antibody, V domains shown)
VH: QVQLVQSGAEVKKPGASVTVSCKASGYTFTDYEMHWIRQPPGEGLEWIGAIDPKTGDTAYSQSFQDRVTLTADKSTSTAYMELSSLTSEDTAVYYCTRFYSYTYWGQGTLVTVSS
VL: DIVMTQSPLSLPVTPGEPASISCRASESLVHSNRNTYLHWYQQKPGQAPRLLIYKVSNRFSGVPDRFSGSGSGTDFTLTISSLQAEDVGVYYCSQNTHVPPTFGQGTKLEIK
notes: Anti-glypican 3, lowered isoelectric point; also called Hd1.8Ld1.6
- binding result [5]: binds

B8: WT-M17ΔGK (antibody, human IgG1, kappa)
heavy: QVQLQESGPGLVRPSQTLSLTCTVSGYSITSDHAWSWVRQPPGRGLEWIGYISYSGITTYNPSLKSRVTMLRDTSKNQFSLRLSSVTAADTAVYYCARSLARTTAMDYWGQGSLVTVSSASTKGPSVFPLAPSSKSTSGGTAALGCLVKDYFPEPVTVSWNSGALTSGVHTFPAVLQSSGLYSLSSVVTVPSSSLGTQTYICNVNHKPSNTKVDKKVEPKSCDKTHTCPPCPAPPVAGPSVFLFPPKPKDTLMISRTPEVTCVVVDVSHEDPEVKFNWYVDGVEVHNAKTKPREEQYNSTYRVVSVLTVLHQDWLNGKEYKCKVSNKGLPSSIEKTISKAKGQPREPQVYTLPPSRDELTKNQVSLTCLVKGFYPSDIAVEWESNGQPENNYKTTPPVLDSDGSFFLYSKLTVDKSRWQQGNVFSCSVMHEALHNHYTQKSLSLSP
light: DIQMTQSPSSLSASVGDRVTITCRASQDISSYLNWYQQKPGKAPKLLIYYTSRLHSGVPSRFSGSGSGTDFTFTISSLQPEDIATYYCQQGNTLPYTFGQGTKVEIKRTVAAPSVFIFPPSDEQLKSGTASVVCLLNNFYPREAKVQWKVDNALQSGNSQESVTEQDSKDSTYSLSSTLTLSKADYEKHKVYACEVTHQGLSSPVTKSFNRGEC
- binding result [1]: binds
- binding result [2]: binds
